# Measurements taken from article doi:10.1101/2024.04.03.587999 (bioRxiv, 2024).
# T1: Outer membrane protein A of Acinetobacter baumannii (recombinant AbOmpA) (Acinetobacter baumannii, UniProt Q6RYW5 20-356)
# T1 sequence (looked up): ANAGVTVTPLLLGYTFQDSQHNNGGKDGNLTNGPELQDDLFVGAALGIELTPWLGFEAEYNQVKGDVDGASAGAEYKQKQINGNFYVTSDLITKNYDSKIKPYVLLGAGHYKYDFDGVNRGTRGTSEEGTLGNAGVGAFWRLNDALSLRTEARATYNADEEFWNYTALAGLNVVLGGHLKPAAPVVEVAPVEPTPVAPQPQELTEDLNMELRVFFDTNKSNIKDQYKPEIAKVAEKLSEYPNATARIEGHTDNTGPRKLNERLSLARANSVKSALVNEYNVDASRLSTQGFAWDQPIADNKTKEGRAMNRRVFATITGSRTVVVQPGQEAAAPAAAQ
# Biological target: T1, Outer membrane protein A of …
# Test: SPR
binder,measurement,value
QMGFMTSPKHSV [P92],Kd,7.84 nM
